Reference: patent publication US12281155 (INSTITUT PASTEUR, dated 2025)

Legend:
[1] = target: T1, recombinant SARS-CoV-2 Spike RBD domain, Wuhan (SARS-CoV-2); test: ELISA on coated RBD
T1 construct: also called RBD Wuhan

[2] = target: T2, YU2 HIV-1 Env gp140 protein (HIV-1 YU2, UniProt P35961 32-670); test: polyreactivity ELISA (FIG. 1)
T2 construct: domain: gp140; also called gp140 (HIV-1 YU2); HIV gp140

[3] = target: T1, recombinant SARS-CoV-2 Spike RBD …; test: competition ELISA, blocking of RBD binding to ACE2 ectodomain

| Binder | Binding AUC [1] | binding result [2] | Blocking % [3] |
| --- | --- | --- | --- |
| SPK002M A3 antibody (antibody, human IgG1, kappa, V domains shown) VH: EVQLVESGGGLIQPGGSLRLSCAASTITVTSNYMSWVRQAPGKGLEWVSVIYPGGSTFYADSVKGRFTISADNSKNTLYLQMNSLRAEDTAVYYCARDLVVYGMDVWGQGTTVTVSS VL: EIVLTQSPGTLSLSPGERATLSCRASQSVSSSYLAWYQQKPGQAPRLLIYGASSRATGIPGRFSGSGSGTDFTLTISRLEPEDFAVYYCQQGVTFGGGTKVEIKR | 33 | no binding (tested: 4 µg/ml) | 94% |
| SPK002M C2 antibody (antibody, human IgG1, kappa, V domains shown) VH: EVQLVESGGGLIQPGGSLRLSCAASIITVTSNYMSWVRQAPGKGLEWVSVAYPGGSTFYADSVKGRFTISTDNSKNTLYLQMNSLRAEDTAVYYCARDLVVYGMDVWGQGTTVTVSS VL: EIVLTQSPGTLSLSPGERATLSCRASQSVSSSYLAWYQQKPGQAPRLLIYGASSRATGIPGRFSGSGSGTDFTLTISRLEPEDFAVYYCQQGVTFGGGTKVEIKR | 32 | no binding (tested: 4 µg/ml) | 88% |
| SPK002M A5 antibody (antibody, human IgG1, kappa, V domains shown) VH: EVQLVESGGGLIQPGGSLRLSCAASVITVTSNYMSWVRQAPGKGLEWVSVIYPGGSTFYADSVKGRFTISADNSKNTLYLQMNSLRAEDTAVYYCARDLVVYGMDVWGQGTTVTVSS VL: EIVLTQSPGTLSLSPGERATLSCRASQSVSSSYLAWYQQKPGQAPRLLIYGASSRATGIPGRFSGSGSGTDFTLTISRLEPEDFAIYYCQQGVTFGGGTKVEIKR | 34 | no binding (tested: 4 µg/ml) | 89% |
| SPK002M A1 antibody (antibody, human IgG1, kappa, V domains shown) VH: EVQLVESGGGLIQPGGSLRLSCAASTITVTSNYMSWVRQAPGKGLEWVSVIYPGGSTFYADSVKGRFTISADNSKNTLYLQMNSLRAEDTAVYYCARDLVVYGMDVWGQGTTVTVSS VL: EIVLTQSPGTLSLSPGERATLSCRASQGFSSSYLAWYQQKPGQAPRLLIYGASSRATGIPGRFSGSGSGTDFTLTISRLEPEDFAVYYCQQGVTFGGGTKVEIKR | 33 | no binding (tested: 4 µg/ml) | 92% |
| SPK002M A6 antibody (antibody, human IgG1, kappa, V domains shown) VH: EVQLVESGGGLIQPGGSLRLSCAASGITVTSNYMSWVRQAPGKGLEWVSVIYPGGSTFYADSVKGRFTISADNSKNTLYLQMNSLRAEDTAVYYCARDLVVYGMDVWGQGTTVTVSS VL: EIVLTQSPGTLSLSPGERATLSCRASQSVSSSYLAWYQQKPGQAPRLLIYGASSRATGIPGRFSGSGSGTDFTLTISRLEPEDFAIYYCQQGVTFGGGTKVEIKR | – | no binding (tested: 4 µg/ml) | – |
| SPK002M C3 antibody (antibody, human IgG1, kappa, V domains shown) VH: EVQLVESGGGLIQPGGSLRLSCAASIITVTSNYMSWVRQAPGKGLEWVSVIYPGGSTFYADSVKGRFTISTDNSKNTLYLQMNSLRAEDTAVYYCARDLVVYGMDVWGQGTTVTVSS VL: EIVLTQSPGTLSLSPGERATLSCRASQSVSSSYLAWYQQKPGQAPRLLIYGASSRATGIPGRFSGSGSGTDFTLTISRLEPEDFAVYYCQQGVTFGGGTKVEIKR | 34 | no binding (tested: 4 µg/ml) | 88% |
| SPK002M B1 antibody (antibody, human IgG1, kappa, V domains shown) VH: EVQLVESGGGLIQPGGSLRLSCAASIITVTSNYMSWVRQAPGKGLEWVSVIYPGGSTFYADSVKGRFTISYDNSKNTLYLQMNSLRAEDTAVYYCARDLVVYGMDVWGQGTTVTVSS VL: EIVLTQSPGTLSLSPGERATLSCRASQSVSDSYLAWYQQKPGQAPRLLIYGASSRATGIPGRFSGSGSGTDFTLTISRLEPEDFAIYYCQYGVTFGGGTKVEIKR | 31 | no binding (tested: 4 µg/ml) | 87% |
| SPK002M B2 antibody (antibody, human IgG1, kappa, V domains shown) VH: EVQLVESGGGLIQPGGSLRLSCAASIITVTSNYMSWVRQAPGKGLEWVSVIYPGGSTFYADSVKGRFTISYDNSKNTLYLQMNSLRAEDTAVYYCARDLVVYGMDVWGQGTTVTVSS VL: EIVLTQSPGTLSLSPGERATLSCRASQSVSSSYLAWYQQKPGQAPRLLIYGASSRATGIPGRFSGSGSGTDFTLTISRLEPEDFAIYYCQQGVTFGGGTKVEIKR | 31 | no binding (tested: 4 µg/ml) | 90% |
| SPK002M A4 antibody (antibody, human IgG1, kappa, V domains shown) VH: EVQLVESGGGLIQPGGSLRLSCAASVITVTSNYMSWVRQAPGKGLEWVSVIYPGGSTFYADSVKGRFTISADNSKNTLYLQMNSLRAEDTAVYYCARDLVVYGMDVWGQGTTVTVSS VL: EIVLTQSPGTLSLSPGERATLSCRASQSVSSSYLAWYQQKPGQAPRLLIYGASSRATGIPGRFSGSGSGTDFTLTISRLEPEDFAVYYCQQGVTFGGGTKVEIKR | 34 | no binding (tested: 4 µg/ml) | 88% |
| SPK002M A2 antibody (antibody, human IgG1, kappa, V domains shown) VH: EVQLVESGGGLIQPGGSLRLSCAASTITVTSNYMSWVRQAPGKGLEWVSVIYPGGSTFYADSVKGRFTISADNSKNTLYLQMNSLRAEDTAVYYCARDLVVYGMDVWGQGTTVTVSS VL: EIVLTQSPGTLSLSPGERATLSCRASQGVSSSYLAWYQQKPGQAPRLLIYGASSRATGIPGRFSGSGSGTDFTLTISRLEPEDFAVYYCQQGVTFGGGTKVEIKR | 33 | no binding (tested: 4 µg/ml) | 92% |
| SPK002M C1 antibody (antibody, human IgG1, kappa, V domains shown) VH: EVQLVESGGGLIQPGGSLRLSCAASIITVTSNYMSWVRQAPGKGLEWVSVAYPGGSTFYADSVKGRFTISTDNSKNTLYLQMNSLRAEDTAVYYCARDLVVYGMDVWGQGTTVTVSS VL: EIVLTQSPGTLSLSPGERATLSCRASQSVSDSYLAWYQQKPGQAPRLLIYGASSRATGIPGRFSGSGSGTDFTLTISRLEPEDFAVYYCQYGVTFGGGTKVEIKR | 32 | no binding (tested: 4 µg/ml) | 94% |
